Results on six molecules are retold here after publication PMC5052646, “DNA annealing by Redβ is insufficient for homologous recombination and the additional requirements involve intra- and inter-molecular interactions” (Scientific Reports, 2016).

Data set [1] addresses T1, wt Redβ, Strep-tag II tagged, purified (λ phage), P03698.
T1 chain: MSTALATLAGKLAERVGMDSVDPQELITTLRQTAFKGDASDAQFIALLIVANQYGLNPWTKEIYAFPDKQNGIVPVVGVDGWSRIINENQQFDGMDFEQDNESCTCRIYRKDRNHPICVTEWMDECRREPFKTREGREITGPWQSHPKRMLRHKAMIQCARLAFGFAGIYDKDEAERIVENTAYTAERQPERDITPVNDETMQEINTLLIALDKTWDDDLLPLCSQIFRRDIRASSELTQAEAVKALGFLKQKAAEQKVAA
The data set can be described thus: ITC; Redα (150 μM) injected in 2 μl steps at 3 min intervals into the cell with Redβ (15 μM); 25 °C; 20 mM HEPES, 150 mM sodium chloride, 1 mM magnesium chloride, 0.5 mM TECP, pH 8; single-site binding model. The settings on record: remark: other sources report otherwise.

Data set [2] deals with the molecule itself. As to the kind of experiment: SEC-MALS; SEC peaks analysed by DLS and SLS/MALS (Dawn Heleos II); purified Redβ proteins injected at 1 mg/ml; species after elution (dilution); without DNA. (Size exclusion chromatography separates by hydrodynamic size, large species first.)
Data set [3] has as its target T2, Redβ wt (phage lambda, UniProt P03698 1-261).
T2 sequence: T1 chain
The data set can be described thus: EMSA; 10 uM protein, 1 uM DNA; weak ssDNA binding (smear), non-complementary Cy5 oligo added; EMSA: 10 uM protein, 1 uM DNA, 20 mM Tris-HCl pH 7.5, 10 mM NaCl, 10 mM MgCl2, 37 C 30 min (+30 min after complementary oligo), 1.2-1.6% agarose, 2x TBE. The settings on record: protein: recombinant; single strand. (In general: Mobility shift assays separate free from complexed probe on a gel.)

In data set [4] the target is T3, C3Redβ (phage lambda, UniProt P03698 1-185).
T3 sequence: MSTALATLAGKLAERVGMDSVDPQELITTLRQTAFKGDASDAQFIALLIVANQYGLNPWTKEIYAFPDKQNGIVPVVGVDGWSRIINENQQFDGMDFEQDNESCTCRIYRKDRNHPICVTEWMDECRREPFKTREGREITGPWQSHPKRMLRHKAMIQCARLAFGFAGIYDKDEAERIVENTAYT
Described as above. The note with it: protein: recombinant; tags: Strep-tag II; N-terminal per Methods, C-terminal per legends; single strand.

In data set [5] the target is T2, Redβ wt. The data set can be described thus: EMSA; sequential addition of strands; annealed nucleoprotein filament; EMSA: 10 uM protein, 1 uM DNA, 20 mM Tris-HCl pH 7.5, 10 mM NaCl, 10 mM MgCl2, 37 C 30 min (+30 min after complementary oligo), 1.2-1.6% agarose, 2x TBE. The settings on record: protein: recombinant; label: 5'-Cy3 on one strand, 5'-Cy5 on the other; 49 bp, 5' overhang 1 nt at each end as printed; annealed by the protein.

Data set [6] deals with T3, C3Redβ. The description is as above. The note with it: protein: recombinant; tags: Strep-tag II; N-terminal per Methods, C-terminal per legends; label: 5'-Cy3 on one strand, 5'-Cy5 on the other; 49 bp, 5' overhang 1 nt at each end as printed; annealed by the protein.

B1: Redα, Strep-tag II tagged, purified, P03697 1-226 (enzyme)
chain: MTPDIILQRTGIDVRAVEQGDDAWHKLRLGVITASEVHNVIAKPRSGKKWPDMKMSYFHTLLAEVCTGVAPEVNAKALAWGKQYENDARTLFEFTSGVNVTESPIIYRDESMRTACSPDGLCSDGNGLELKCPFTSRDFMKFRLGGFEAIKSAYMAQVQYSMWVTRKNAWYFANYDPRMKREGLHYVVIERDEKYMASFDEIVPEFIEKMDEALAEIGFVFGEQWR
A word on the Kd: it is the free concentration of one partner at which half of the binding sites on the other are occupied at equilibrium, for simple one-to-one binding. The low end stands for a tighter complex, the high end for a looser complex. On to B1, for which, in data set [1], the Kd was 7.9 µM and the dH is -9.84 kcal/mol.

B2: wt Redβ, Strep-tag II tagged, purified (natural protein, λ phage, UniProt P03698 1-261, looked up)
chain: T1 chain
notes: Redβ, single strand annealing protein of λ phage; the ORF cloned into pASK-IBA2; 261 residues by the printed limits of the truncations; also called wild type Redβ; not shown: Strep-tag II, C-terminal, kept
For B2, the “Dist (%) of Species 3 (1 subunit, monomer)” value (“Dist (%)” for short) in data set [2] came out at 68.2%.

B3: N1Redβ (20–261), Strep-tag II tagged, purified (domain or fragment, λ phage, UniProt P03698 20-261, looked up)
chain: SVDPQELITTLRQTAFKGDASDAQFIALLIVANQYGLNPWTKEIYAFPDKQNGIVPVVGVDGWSRIINENQQFDGMDFEQDNESCTCRIYRKDRNHPICVTEWMDECRREPFKTREGREITGPWQSHPKRMLRHKAMIQCARLAFGFAGIYDKDEAERIVENTAYTAERQPERDITPVNDETMQEINTLLIALDKTWDDDLLPLCSQIFRRDIRASSELTQAEAVKALGFLKQKAAEQKVAA
notes: Redβ of λ phage, residues 20-261 (N-terminal truncation N1); also called N1 deletion; not shown: Strep-tag II, C-terminal, kept
For the molecule B3, in data set [2], the “Dist (%)” value amounted to 7.4%.

B4: C3Redβ (1–185), Strep-tag II tagged, purified (domain or fragment, λ phage, UniProt P03698 1-185, looked up)
chain: T3 sequence
notes: Redβ of λ phage, residues 1-185 (C-terminal truncation C3); also called C3 deletion; C3-truncated Redβ; not shown: Strep-tag II, C-terminal, kept
With B4, in data set [2], the “Dist (%)” value was 9.3%.

B5: Cy3 50-mer ssDNA (ssDNA)
DNA: CCATCCGCAAAAATCGAGCTATGCAGGGCGATTCTGCTCTAAGCCATCCG
For the molecule B5, the binding result in data set [3] and in data set [4] was “binds” throughout.

B6: 50-mer complementary pair, sequentially added (dsDNA)
DNA 1: B5 DNA
DNA 2: GCGGATGGCTTAGAGCAGAATCGCCCTGCATAGCTCGATTTTTGCGGATG
Regarding B6, the binding result in data set [5] and in data set [6] was “binds” each time.
